The values that follow are results of earlier work, collected in paper PMC4266928.

By Kd is commonly meant the equilibrium constant for the complex coming apart.

In the data set the target is insulin (Homo sapiens) (UniProt P01308).

With insulin (from UniProt P01308), the Kd was 10 µM.
